According to paper PMC10033316:

Assay: BS3 cross-linking, non-reducing SDS-PAGE, anti-Flag blot
Conditions: glycan changed form; control: K562/ADR cells (low GnT-III)

B1: TNF receptor 2 (TNFR2): GnT-III overexpression (protein)
parent chain: MAPVAVWAALAVGLELWAAAHALPAQVAFTPYAPEPGSTCRLREYYDQTAQMCCSKCSPGQHAKVFCTKTSDTVCDSCEDSTYTQLWNWVPECLSCGSRCSSDQVETQACTREQNRICTCRPGWYCALSKQEGCRLCAPLRKCRPGFGVARPGTETSDVVCKPCAPGTFSNTTSSTDICRPHQICNVVAIPGNASMDAVCTSTSPTRSMAPGAVHLPQPVSTRSQHTQPTPEPSTAPSTSFLLPMGPSPPAEGSTGDFALPVGLIVGVTALGLLIIGVVNCVIMTQVKKKPLCLQREAKVPHLPADKARGTQGPEQQHLLITAPSSSSSSLESSASALDRRAPTRNQPQAPGVEASGAGEARASTGSSDSSPGGHGTQVNVTCIVNVCSSSDHSSQCSSQASSTMGDTDSSPSESPKDEQVPFSKEECAFRSQLETPETLLGSTEEKPLPLGVPDAGMKPS
  oligomerisation: decreases
